{"source": "paper PMC7954794", "about": "(2021)", "parents": {"B1": {"name": "S. cerevisiae Abp1 (full length; SH3 domain 535-592 mutated) / Hua2 (parent complex)", "chain 1": "MALEPIDYTTHSREIDAEYLKIVRGSDPDTTWLIISPNAKKEYEPESTGSSFHDFLQLFDETKVQYGLARVSPPGSDVEKIIIIGWCPDSAPLKTRASFAANFAAVANNLFKGYHVQVTARDEDDLDENELLMKISNAAGARYSIQTSSKQQGKASTPPVKKSFTPSKSPAPVSKKEPVKTPSPAPAAKISSRVNDNNDDDDWNEPELKERDFDQAPLKPNQSSYKPIGKIDLQKVIAEEKAKEDPRLVQKPTAAGSKIDPSSDIANLKNESKLKRDSEFNSFLGTTKPPSMTESSLKNDDDKVIKGFRNEKSPAQLWAERKAKQNSGNAETKAEAPKPEVPEDEPEGEPDVKDLKSKFEGLAASEKEEEEMENKFAPPPKKSEPTIISPKPFSKPQEPVKAEEAEQPKTDYKKIGNPLPGMHIEADNEEEPEENDDDWDDDEDEAAQPPLPSRNVASGAPVQKEEPEQEEIAPSLPSRNSIPAPKQEEAPEQAPEEEIEEEAEEAAPQLPSRSSAAPPPPPRRATPEKKPKENPWATAEYDYDAAEDNELTFVENDKIINIEFVDDDWWLGELEKDGSKGLFPSNYVSLGN", "chain 2": "MQQTKFGKMYLDHDSVVEYSEDEIVEADRITLGYKKRLSMIENQMRHLLEDFSLDVQQIEPILADLQKYYDAFLQLLQKRNKSLQCKRSTHQPVPSPMNSQTSTNAKVNLSGKLMKFQLNSVQKFDEENILRILQNKIEFEHYFQIDKGKKQKVLLLAVYQCLNGPTRLHKVLNIEGIIHNNSIRTILGKQVSSSKWTVFLYDVKLVLLAHRQDVPNLETSKMIVRYGDLFPCALYFKDHTAY"}}}
{"variants_of": "B1", "assay": "DHFR protein-fragment complementation in yeast (Abp1-DHFR F[1,2] x partner-DHFR F[3]), deep mutational scanning, second methotrexate selection vs reference; S. cerevisiae, DHFR-PCA selection in liquid with methotrexate at 30 C, two 72 h selections (the score uses the second); reference = the pre-selection culture"}
{"variant": "chain 1 MALEPIDYTTHSREIDAEYLKIVRGSDPDTTWLIISPNAKKEYEPESTGSSFHDFLQLFDETKVQYGLARVSPPGSDVEKIIIIGWCPDSAPLKTRASFAANFAAVANNLFKGYHVQVTARDEDDLDENELLMKISNAAGARYSIQTSSKQQGKASTPPVKKSFTPSKSPAPVSKKEPVKTPSPAPAAKISSRVNDNNDDDDWNEPELKERDFDQAPLKPNQSSYKPIGKIDLQKVIAEEKAKEDPRLVQKPTAAGSKIDPSSDIANLKNESKLKRDSEFNSFLGTTKPPSMTESSLKNDDDKVIKGFRNEKSPAQLWAERKAKQNSGNAETKAEAPKPEVPEDEPEGEPDVKDLKSKFEGLAASEKEEEEMENKFAPPPKKSEPTIISPKPFSKPQEPVKAEEAEQPKTDYKKIGNPLPGMHIEADNEEEPEENDDDWDDDEDEAAQPPLPSRNVASGAPVQKEEPEQEEIAPSLPSRNSIPAPKQEEAPEQAPEEEIEEEAEEAAPQLPSRSSAAPPPPPRRATPEKKPKENPWATAEYDYDAAEDNELTFVETDKIINIEFVDDDWWLGELEKDGSKGLFPSNYVSLGN", "note": "[chain 1 N556T]", "screen value": "0.279 DMS score: mean over two replicates of log2(f_test/f_ref + 0.5)/ln 2, minus the synonymous-codon median (not a log2 …"}
{"variant": "chain 1 MALEPIDYTTHSREIDAEYLKIVRGSDPDTTWLIISPNAKKEYEPESTGSSFHDFLQLFDETKVQYGLARVSPPGSDVEKIIIIGWCPDSAPLKTRASFAANFAAVANNLFKGYHVQVTARDEDDLDENELLMKISNAAGARYSIQTSSKQQGKASTPPVKKSFTPSKSPAPVSKKEPVKTPSPAPAAKISSRVNDNNDDDDWNEPELKERDFDQAPLKPNQSSYKPIGKIDLQKVIAEEKAKEDPRLVQKPTAAGSKIDPSSDIANLKNESKLKRDSEFNSFLGTTKPPSMTESSLKNDDDKVIKGFRNEKSPAQLWAERKAKQNSGNAETKAEAPKPEVPEDEPEGEPDVKDLKSKFEGLAASEKEEEEMENKFAPPPKKSEPTIISPKPFSKPQEPVKAEEAEQPKTDYKKIGNPLPGMHIEADNEEEPEENDDDWDDDEDEAAQPPLPSRNVASGAPVQKEEPEQEEIAPSLPSRNSIPAPKQEEAPEQAPEEEIEEEAEEAAPQLPSRSSAAPPPPPRRATPEKKPKENPWATAEYDYDAAEDNELTFVENDKIINIEFVDDDWWLGSLEKDGSKGLFPSNYVSLGN", "note": "[chain 1 E573S]", "screen value": "-0.47 DMS score: mean over two replicates of log2(f_test/f_ref + 0.5)/ln 2, minus the synonymous-codon median (not a log2 …"}
{"variant": "chain 1 MALEPIDYTTHSREIDAEYLKIVRGSDPDTTWLIISPNAKKEYEPESTGSSFHDFLQLFDETKVQYGLARVSPPGSDVEKIIIIGWCPDSAPLKTRASFAANFAAVANNLFKGYHVQVTARDEDDLDENELLMKISNAAGARYSIQTSSKQQGKASTPPVKKSFTPSKSPAPVSKKEPVKTPSPAPAAKISSRVNDNNDDDDWNEPELKERDFDQAPLKPNQSSYKPIGKIDLQKVIAEEKAKEDPRLVQKPTAAGSKIDPSSDIANLKNESKLKRDSEFNSFLGTTKPPSMTESSLKNDDDKVIKGFRNEKSPAQLWAERKAKQNSGNAETKAEAPKPEVPEDEPEGEPDVKDLKSKFEGLAASEKEEEEMENKFAPPPKKSEPTIISPKPFSKPQEPVKAEEAEQPKTDYKKIGNPLPGMHIEADNEEEPEENDDDWDDDEDEAAQPPLPSRNVASGAPVQKEEPEQEEIAPSLPSRNSIPAPKQEEAPEQAPEEEIEEEAEEAAPQLPSRSSAAPPPPPRRATPEKKPKENPWATAEYDYDAAEDNELTFVENDKIINIEFVDDDWWLGELEKDGSKGYFPSNYVSLGN", "note": "[chain 1 L582Y]", "screen value": "0.369 DMS score: mean over two replicates of log2(f_test/f_ref + 0.5)/ln 2, minus the synonymous-codon median (not a log2 …"}
{"variant": "chain 1 MALEPIDYTTHSREIDAEYLKIVRGSDPDTTWLIISPNAKKEYEPESTGSSFHDFLQLFDETKVQYGLARVSPPGSDVEKIIIIGWCPDSAPLKTRASFAANFAAVANNLFKGYHVQVTARDEDDLDENELLMKISNAAGARYSIQTSSKQQGKASTPPVKKSFTPSKSPAPVSKKEPVKTPSPAPAAKISSRVNDNNDDDDWNEPELKERDFDQAPLKPNQSSYKPIGKIDLQKVIAEEKAKEDPRLVQKPTAAGSKIDPSSDIANLKNESKLKRDSEFNSFLGTTKPPSMTESSLKNDDDKVIKGFRNEKSPAQLWAERKAKQNSGNAETKAEAPKPEVPEDEPEGEPDVKDLKSKFEGLAASEKEEEEMENKFAPPPKKSEPTIISPKPFSKPQEPVKAEEAEQPKTDYKKIGNPLPGMHIEADNEEEPEENDDDWDDDEDEAAQPPLPSRNVASGAPVQKEEPEQEEIAPSLPSRNSIPAPKQEEAPEQAPEEEIEEEAEEAAPQLPSRSSAAPPPPPRRATPEKKPKENMWATAEYDYDAAEDNELTFVENDKIINIEFVDDDWWLGELEKDGSKGLFPSNYVSLGN", "note": "[chain 1 P535M]", "screen value": "1.02 DMS score: mean over two replicates of log2(f_test/f_ref + 0.5)/ln 2, minus the synonymous-codon median (not a log2 …"}
{"variant": "chain 1 MALEPIDYTTHSREIDAEYLKIVRGSDPDTTWLIISPNAKKEYEPESTGSSFHDFLQLFDETKVQYGLARVSPPGSDVEKIIIIGWCPDSAPLKTRASFAANFAAVANNLFKGYHVQVTARDEDDLDENELLMKISNAAGARYSIQTSSKQQGKASTPPVKKSFTPSKSPAPVSKKEPVKTPSPAPAAKISSRVNDNNDDDDWNEPELKERDFDQAPLKPNQSSYKPIGKIDLQKVIAEEKAKEDPRLVQKPTAAGSKIDPSSDIANLKNESKLKRDSEFNSFLGTTKPPSMTESSLKNDDDKVIKGFRNEKSPAQLWAERKAKQNSGNAETKAEAPKPEVPEDEPEGEPDVKDLKSKFEGLAASEKEEEEMENKFAPPPKKSEPTIISPKPFSKPQEPVKAEEAEQPKTDYKKIGNPLPGMHIEADNEEEPEENDDDWDDDEDEAAQPPLPSRNVASGAPVQKEEPEQEEIAPSLPSRNSIPAPKQEEAPEQAPEEEIEEEAEEAAPQLPSRSSAAPPPPPRRATPEKKPKENPWATAEYDYDAAEDNELTFVENDKINNIEFVDDDWWLGELEKDGSKGLFPSNYVSLGN", "note": "[chain 1 I560N]", "screen value": "-0.729 DMS score: mean over two replicates of log2(f_test/f_ref + 0.5)/ln 2, minus the synonymous-codon median (not a log2 …"}
